The values that follow are results of earlier work, collected in publication PMC10531186.

The target of this series is uPA (Mus musculus) (UniProt P06869).
Chain of UniProt P06869 (P06869 21-433): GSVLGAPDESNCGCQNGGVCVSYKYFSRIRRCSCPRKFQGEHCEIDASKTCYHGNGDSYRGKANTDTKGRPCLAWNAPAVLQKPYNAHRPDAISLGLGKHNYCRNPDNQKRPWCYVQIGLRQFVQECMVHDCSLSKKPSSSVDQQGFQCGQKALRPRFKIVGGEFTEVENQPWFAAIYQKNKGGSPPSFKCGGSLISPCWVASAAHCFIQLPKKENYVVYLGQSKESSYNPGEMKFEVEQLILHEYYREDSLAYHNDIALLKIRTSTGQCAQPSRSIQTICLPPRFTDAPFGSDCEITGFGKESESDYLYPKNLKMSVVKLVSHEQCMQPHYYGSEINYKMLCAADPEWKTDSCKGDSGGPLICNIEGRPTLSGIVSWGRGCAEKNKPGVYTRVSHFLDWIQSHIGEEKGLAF

As to mupain-1, the Ki was 185 nM.
